Key:
[1] = molecular target: T1, Human serum albumin (human, UniProt P02768 25-609); experiment: cell-based or functional assay
[2] = molecular target: T2, Recombinant human TNFRI, disulfide-linked homodimer (human, UniProt P19438 30-455); experiment: ITC; VP-ITC calorimeter; peptide serially diluted and injected; KD by Microcal ORIGIN Ver. 5.0; method by refs 48, 49; conditions: both partners purified
[3] = molecular target: T1, Human serum albumin; experiment: as above; conditions: both partners purified
[4] = molecular target: T3, Mouse serum albumin (mouse, UniProt P07724 25-608); experiment: as above; conditions: both partners purified
T3 construct: serum albumin, mouse; also called MSA; source: bought: Sigma
T3 sequence (P07724 25-608): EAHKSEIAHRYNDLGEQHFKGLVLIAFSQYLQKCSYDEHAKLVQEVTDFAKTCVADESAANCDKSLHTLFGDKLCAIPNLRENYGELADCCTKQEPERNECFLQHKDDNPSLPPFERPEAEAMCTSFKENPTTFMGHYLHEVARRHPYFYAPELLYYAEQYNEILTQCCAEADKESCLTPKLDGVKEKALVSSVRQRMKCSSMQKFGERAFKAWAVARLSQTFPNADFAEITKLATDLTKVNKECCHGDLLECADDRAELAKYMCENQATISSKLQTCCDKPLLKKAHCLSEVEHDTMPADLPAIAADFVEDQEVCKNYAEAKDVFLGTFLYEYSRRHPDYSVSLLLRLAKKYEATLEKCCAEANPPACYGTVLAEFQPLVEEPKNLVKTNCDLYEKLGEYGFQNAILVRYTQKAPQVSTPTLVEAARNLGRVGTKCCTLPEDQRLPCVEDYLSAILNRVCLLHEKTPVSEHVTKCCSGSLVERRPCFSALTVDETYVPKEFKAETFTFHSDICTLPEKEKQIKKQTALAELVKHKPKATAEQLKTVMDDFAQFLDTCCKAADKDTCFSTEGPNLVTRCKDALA

[5] = molecular target: T2, Recombinant human TNFRI, …; experiment: SPR; BIAcore 3000; peptide serially diluted and injected; KD by BIAcore kinetic evaluation Ver. 4.1; method by refs 48, 49; conditions: both partners purified
[6] = molecular target: T1, Human serum albumin; experiment: as above; conditions: both partners purified
[7] = molecular target: T3, Mouse serum albumin; experiment: as above; conditions: both partners purified
[8] = molecular target: T4, Human TNFRI of ML-la cells (human, UniProt P19438 30-455); experiment: radioligand binding; competition: ML-la cells (1 × 10^6 cells/well) preincubated with anti-p60 or anti-p80 antibody (25 °C, 30 min) to block TNFRI or TNFRII, then 125I-labeled TNF α with unlabeled TNF α or RMP16 (10^-11 to 10^-5 M) in RPMI 1640 with 10% fetal calf serum, 25 °C, 1 h; cell-bound radioactivity counted; conditions: one partner purified
T4 construct: also called p60; source: endogenous, on ML-la cells (human myelomonoblastic leukemia cell line)
T4 sequence (looked up): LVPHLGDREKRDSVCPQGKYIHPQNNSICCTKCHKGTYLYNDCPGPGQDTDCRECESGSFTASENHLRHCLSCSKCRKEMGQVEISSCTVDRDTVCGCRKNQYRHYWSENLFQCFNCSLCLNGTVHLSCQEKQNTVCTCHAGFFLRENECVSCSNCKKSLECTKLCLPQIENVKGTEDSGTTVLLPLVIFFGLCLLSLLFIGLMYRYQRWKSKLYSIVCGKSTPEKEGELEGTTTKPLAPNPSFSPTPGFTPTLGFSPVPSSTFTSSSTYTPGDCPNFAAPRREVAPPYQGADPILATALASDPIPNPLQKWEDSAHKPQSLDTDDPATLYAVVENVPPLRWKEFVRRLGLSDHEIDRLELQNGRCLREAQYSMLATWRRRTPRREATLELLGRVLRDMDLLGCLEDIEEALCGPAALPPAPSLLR

in vitro Factor Xa enzyme digestion half-life of RMP16 (10 μM) in the presence of HSA (2 μM), against 9.72 h without HSA [1]: 15.8 h
Kd [2]: 20.4 nM
Kd [3]: 822 nM
Kd [4]: 894 nM
Kd [5]: 21.3 nM
Kd [6]: 875 nM
Kd [7]: 925 nM
IC50 [8]: 15.1 nM
B1: RMP16, recombinant TNF α-derived polypeptide (peptide)
chain: MWQRPSSWIEGRLLTHTISRIAVSYQTKVNLL
notes: P16, TNF α segment of amino acid residues 75-94, human; also called recombinant peptide RMP16

Source: article PMC4559766 (Scientific Reports, 2015)
